The text below walks through data of article PMC3268518 (Molecular Cell, 2011).

Assay [1] concerns the target recombinant wild type Ded1 (yeast, UniProt P06634 1-604). As to the kind of experiment: pull-down.
Assay [2] deals with T1, co-purified GST-eIF4G1/eIF4E complex (yeast, UniProt P39935 1-952; P07260 1-213).
T1 sequence (looked up) 1: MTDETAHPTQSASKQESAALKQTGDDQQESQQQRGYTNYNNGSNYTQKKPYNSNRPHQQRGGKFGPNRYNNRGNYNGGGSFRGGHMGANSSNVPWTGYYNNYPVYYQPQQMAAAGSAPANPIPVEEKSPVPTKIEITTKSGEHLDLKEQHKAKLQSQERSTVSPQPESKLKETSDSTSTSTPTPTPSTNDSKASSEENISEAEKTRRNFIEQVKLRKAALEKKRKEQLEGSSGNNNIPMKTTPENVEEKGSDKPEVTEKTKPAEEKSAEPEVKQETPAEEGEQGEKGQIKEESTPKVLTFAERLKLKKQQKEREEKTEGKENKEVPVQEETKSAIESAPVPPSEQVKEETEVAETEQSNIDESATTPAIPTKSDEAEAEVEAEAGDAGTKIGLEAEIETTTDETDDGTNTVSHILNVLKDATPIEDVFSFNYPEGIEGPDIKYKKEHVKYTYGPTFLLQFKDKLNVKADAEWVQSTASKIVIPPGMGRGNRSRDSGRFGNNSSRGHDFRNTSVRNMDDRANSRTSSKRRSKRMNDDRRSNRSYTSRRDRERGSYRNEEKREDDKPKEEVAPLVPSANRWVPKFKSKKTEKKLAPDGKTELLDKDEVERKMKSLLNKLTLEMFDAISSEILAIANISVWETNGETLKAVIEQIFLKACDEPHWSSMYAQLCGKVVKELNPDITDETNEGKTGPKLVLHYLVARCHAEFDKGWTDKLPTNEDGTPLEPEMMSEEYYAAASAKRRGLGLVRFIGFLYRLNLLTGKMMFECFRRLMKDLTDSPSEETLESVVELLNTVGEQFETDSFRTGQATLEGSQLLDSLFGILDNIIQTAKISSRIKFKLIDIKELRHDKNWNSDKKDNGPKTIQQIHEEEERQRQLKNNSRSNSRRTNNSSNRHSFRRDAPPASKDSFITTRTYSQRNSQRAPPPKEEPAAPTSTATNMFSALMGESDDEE
T1 sequence (looked up) 2: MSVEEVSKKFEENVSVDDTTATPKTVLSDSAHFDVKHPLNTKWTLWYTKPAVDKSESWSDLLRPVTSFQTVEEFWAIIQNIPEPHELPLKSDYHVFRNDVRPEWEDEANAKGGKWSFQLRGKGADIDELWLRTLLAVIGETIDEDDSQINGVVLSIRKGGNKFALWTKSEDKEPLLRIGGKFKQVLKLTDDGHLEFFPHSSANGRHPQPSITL
As to the kind of experiment: pull-down.

B1: GST-eIF4G1 fragment eIF4G 883-952 (domain or fragment, yeast, UniProt P39935 883-952, looked up)
chain: SNSRRTNNSSNRHSFRRDAPPASKDSFITTRTYSQRNSQRAPPPKEEPAAPTSTATNMFSALMGESDDEE
For the molecule B1, in assay [1], the binding result is “binds”.

B2: rded1Δ21-27 (enzyme, yeast, UniProt P06634 1-604, looked up)
chain: MAELSEQVQNLSINDNNENGGKPRSARNNSSNYNNNNGGYNGGRGGGSFFSNNRRGGYGNGGFFGGNNGGSRSNGRSGGRWIDGKHVPAPRNEKAEIAIFGVPEDPNFQSSGINFDNYDDIPVDASGKDVPEPITEFTSPPLDGLLLENIKLARFTKPTPVQKYSVPIVANGRDLMACAQTGSGKTGGFLFPVLSESFKTGPSPQPESQGSFYQRKAYPTAVIMAPTRELATQIFDEAKKFTYRSWVKACVVYGGSPIGNQLREIERGCDLLVATPGRLNDLLERGKISLANVKYLVLDEADRMLDMGFEPQIRHIVEDCDMTPVGERQTLMFSATFPADIQHLARDFLSDYIFLSVGRVGSTSENITQKVLYVENQDKKSALLDLLSASTDGLTLIFVETKRMADQLTDFLIMQNFRATAIHGDRTQSERERALAAFRSGAATLLVATAVAARGLDIPNVTHVINYDLPSDVDDYVHRIGRTGRAGNTGLATAFFNSENSNIVKGLHEILTEANQEVPSFLKDAMMSAPGSRSNSRRGGFGRNNNRDYRKAGGASAGGWGSSRSRDNSFRGGSGWGSDSKSSGWGNSGGSNNSSWW
As to B2, the binding result in assay [2] was “binds”.
